The results in this text go back to patent US20220089752A1 (University of California, published 2022).

Experiment [1] has as its target ephrin type-A receptor 2 (EphA2) on cells (human) (UniProt P29317). The experiment in a line: cell-based or functional assay.
The target in experiment [2] is activated leukocyte cell adhesion molecule (ALCAM) on human cell lines (human) (UniProt Q13740). The experiment in a line: cell-based or functional assay.
The target in experiment [3] is T1, mouse recombinant EphA2-Fc fusion protein (mouse, UniProt Q03145 26-535, limits assumed).
T1 construct: also called mouse EphA2; not shown: Fc part
T1 sequence (Q03145 26-535 limits assumed): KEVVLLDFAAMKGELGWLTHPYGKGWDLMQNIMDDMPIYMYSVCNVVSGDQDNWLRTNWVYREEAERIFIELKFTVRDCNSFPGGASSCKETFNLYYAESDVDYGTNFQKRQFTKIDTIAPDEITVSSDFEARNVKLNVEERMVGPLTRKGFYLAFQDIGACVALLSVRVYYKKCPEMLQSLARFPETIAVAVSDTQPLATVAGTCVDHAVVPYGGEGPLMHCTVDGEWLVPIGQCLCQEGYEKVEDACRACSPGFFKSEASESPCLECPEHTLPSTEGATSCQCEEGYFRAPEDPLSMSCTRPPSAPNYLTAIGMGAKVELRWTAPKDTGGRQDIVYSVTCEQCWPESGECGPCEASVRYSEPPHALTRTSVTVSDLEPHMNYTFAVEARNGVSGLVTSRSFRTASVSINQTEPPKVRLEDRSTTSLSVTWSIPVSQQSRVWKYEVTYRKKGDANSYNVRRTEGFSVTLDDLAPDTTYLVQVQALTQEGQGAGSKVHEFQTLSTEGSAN
The experiment is described as follows: flow cytometry of yeast-displayed scFv with mouse recombinant EphA2-Fc, curve fit of normalized MFI (apparent KD). The source says: (§1) In this experiment, RYRgerm is the germline version of RYR. The remaining samples were RYRgerm derivatives with high binding affinity. Apparent KD values were estimated by curve-fitting of normalized MFI values. FIG. 10B: Apparent KD measurement of four new EphA2 scFvs binding affinity to mouse recombinant EphA2-Fc fusion protein. Apparent KD values were estimated by curve-fitting of normalized MFI values.
(§2) This Example describes experiments performed to identify new versions of EphA2 binding scFv antibodies with improved binding affinity. The original EphA2 binding scFv RYR has been described previously in PCT/US2015/039741, in which EphA2 binding scFv RYR was named HCA-F1 and a germline version of RYR was named RYRgerm. To identify new versions of EphA2 binding scFv antibodies improved binding affinity for EphA2, yeast display mutagenesis libraries based on RYRgerm were generated and selected by FACS for higher affinity binders. Four new EphA2 scFvs with high binding affinity for EphA2 were identified and named […], RYRgerm_102919_15, RYRgerm_102919_22, and RYRgerm_102919_33, respectively. The amino acid sequences of VH and VL regions as well as the CDRs for these newly identified EphA2 scFvs are presented in Tables 4-5 and the Sequence Listing. In these eperiments, both human and mouse recombinant EphA2 proteins were used in selection to maintain cross-species binding. Apparent affinity was measured by flow cytometry for binding to both human and mouse EphA2.

The target of experiment [4] is T2, recombinant human EphA2 (human, UniProt P29317 25-534).
T2 construct: also called human recombinant EphA2 protein
T2 sequence (P29317 25-534 limits assumed): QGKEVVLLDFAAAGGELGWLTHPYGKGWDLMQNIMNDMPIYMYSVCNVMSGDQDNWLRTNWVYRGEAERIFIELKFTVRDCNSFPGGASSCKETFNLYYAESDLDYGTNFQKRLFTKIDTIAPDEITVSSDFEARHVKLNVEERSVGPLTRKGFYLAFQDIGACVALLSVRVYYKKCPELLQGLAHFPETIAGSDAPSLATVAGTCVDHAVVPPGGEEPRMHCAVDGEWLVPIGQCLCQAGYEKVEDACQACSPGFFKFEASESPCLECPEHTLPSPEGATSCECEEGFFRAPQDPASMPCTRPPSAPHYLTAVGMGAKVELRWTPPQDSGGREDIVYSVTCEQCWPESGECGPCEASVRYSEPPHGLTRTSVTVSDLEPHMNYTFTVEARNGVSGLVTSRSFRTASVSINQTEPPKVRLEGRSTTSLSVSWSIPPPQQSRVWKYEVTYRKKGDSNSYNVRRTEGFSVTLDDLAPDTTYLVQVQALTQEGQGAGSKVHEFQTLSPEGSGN
The experiment is described as follows: flow cytometry of yeast-displayed scFv with human recombinant EphA2, curve fit of normalized MFI (apparent KD).
Source text: as §1, with “FIGS. 10A-10B graphically illustrate the selection and characterization of anti-EphA2 scFvs from yeast display mutagenesis libraries. FIG. 10A: Apparent KD measurement of four new EphA2 scFvs binding affinity to human recombinant EphA2 protein. In” for “In”
as §2

In experiment [5] the target is T2, recombinant human EphA2. The experiment in a line: flow cytometry of yeast-displayed scFv with recombinant human EphA2 at 0-100 nM.
Source text: as §1
as §2, with “In these eperiments, both human and mouse recombinant EphA2 proteins were used in selection to maintain cross-species binding.” left out

The target of experiment [6] is T2, recombinant human EphA2. The experiment in a line: BLI (Probe Life Gator), IgG1 on anti-human Fc probes, 100 nM recombinant human EphA2, 25 C.
Experiment [7] has as its target T3, ephrin type-A receptor 2 (EphA2) on cells (human, UniProt P29317 24-976).
T3 construct: whole, on cells
The experiment is described as follows: flow cytometry on DU145 cells, 1 h at 25 C, 40 pM to 125 nM, MFI curve fit (apparent KD). The procedure:
In these experiments, apparent binding affinity of RYR IgG1 versus RYRgerm_102919_15 IgG1 on DU145 cells was evaluated. In these experiments, DU145 cells were incubated for 1 h at 25° C. with RYR or RYRgerm_102919_15 at a range of concentrations between 40 pM to 125 nM, washed, and binding detected with anti-human Alexa Fluor 647. MFI values were curve-fit to generate the apparent KD values.

The target in experiment [8] is T4, activated leukocyte cell adhesion molecule (ALCAM) on human cell lines (human, UniProt Q13740 28-583).
T4 construct: whole, on cells
T4 sequence (looked up): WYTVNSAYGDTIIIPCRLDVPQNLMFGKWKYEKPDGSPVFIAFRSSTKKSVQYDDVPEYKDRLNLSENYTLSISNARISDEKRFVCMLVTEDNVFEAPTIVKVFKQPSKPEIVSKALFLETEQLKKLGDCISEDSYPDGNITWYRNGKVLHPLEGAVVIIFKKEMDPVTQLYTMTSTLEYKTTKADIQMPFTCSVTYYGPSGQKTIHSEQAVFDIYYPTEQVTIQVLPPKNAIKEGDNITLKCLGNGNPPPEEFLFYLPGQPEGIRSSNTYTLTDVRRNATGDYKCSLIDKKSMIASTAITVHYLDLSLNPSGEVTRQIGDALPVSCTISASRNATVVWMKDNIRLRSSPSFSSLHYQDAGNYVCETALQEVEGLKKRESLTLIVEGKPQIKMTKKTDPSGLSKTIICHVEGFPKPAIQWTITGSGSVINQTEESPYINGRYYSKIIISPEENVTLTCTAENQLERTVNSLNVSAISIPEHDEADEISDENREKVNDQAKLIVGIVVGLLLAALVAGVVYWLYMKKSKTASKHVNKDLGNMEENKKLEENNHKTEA
The experiment is described as follows: FACS on live DU145 cells, 3F1 IgG at 4 C overnight, Alexa 647 anti-human IgG. The procedure: (§3) FIGS. 6A-6D graphically illustrate the selection and characterization of anti-ALCAM scFvs from phage display library. FIG. 6A: Enrichment of ALCAM-binding phage through three rounds of selection. Recombinant Fc-fusion of ALCAM-V domain was immobilized on magnetic beads and utilized for scFv phage display library selection. Enrichment was calculated by dividing phage output titer by input phage titer (y-axis on the left). Binding activity of polyclonal phages amplified from each round output was described as folds against the binding of the unselected phage library (y-axis on the right). FIG. 6B: After three rounds of selection, FACS was performed to screen out monoclonal phage binding to the ALCAM^high DU145 cell line. FIG. 6C: Apparent KD of 3F1 IgG on live ALCAM-expressing cells. DU145 cells were incubated with varying concentrations of 3F1 IgG at 4° C. overnight and analyzed by FACS using Alexa® 647-conjugated anti-human IgG. KD value was estimated by curve fitting using GraphPad Prism (GraphPad Software). FIG. 6D: Confocal microscopy study of cellular localization of anti-ALCAM 3F1 IgG. Tumor cell lines were seeded in chamber-well slide and incubated with 3F1 IgG at 37° C. for 2 hours. Antibodies were stained with Alexa® 647-conjugated anti-human antibody (red). […] ALCAM expression measured using 3F1 IgG was shown below microscopic images (lower panel). […]

For experiment [9], the target named is T4, activated leukocyte cell adhesion …. The experiment is described as follows: FACS titration of the IgG1 on live DU145 cells, curve fit (apparent KD). Here is the method: as §3

Chain of ephrin type-A receptor 2 (EphA2) on cells (human) (P29317 24-976): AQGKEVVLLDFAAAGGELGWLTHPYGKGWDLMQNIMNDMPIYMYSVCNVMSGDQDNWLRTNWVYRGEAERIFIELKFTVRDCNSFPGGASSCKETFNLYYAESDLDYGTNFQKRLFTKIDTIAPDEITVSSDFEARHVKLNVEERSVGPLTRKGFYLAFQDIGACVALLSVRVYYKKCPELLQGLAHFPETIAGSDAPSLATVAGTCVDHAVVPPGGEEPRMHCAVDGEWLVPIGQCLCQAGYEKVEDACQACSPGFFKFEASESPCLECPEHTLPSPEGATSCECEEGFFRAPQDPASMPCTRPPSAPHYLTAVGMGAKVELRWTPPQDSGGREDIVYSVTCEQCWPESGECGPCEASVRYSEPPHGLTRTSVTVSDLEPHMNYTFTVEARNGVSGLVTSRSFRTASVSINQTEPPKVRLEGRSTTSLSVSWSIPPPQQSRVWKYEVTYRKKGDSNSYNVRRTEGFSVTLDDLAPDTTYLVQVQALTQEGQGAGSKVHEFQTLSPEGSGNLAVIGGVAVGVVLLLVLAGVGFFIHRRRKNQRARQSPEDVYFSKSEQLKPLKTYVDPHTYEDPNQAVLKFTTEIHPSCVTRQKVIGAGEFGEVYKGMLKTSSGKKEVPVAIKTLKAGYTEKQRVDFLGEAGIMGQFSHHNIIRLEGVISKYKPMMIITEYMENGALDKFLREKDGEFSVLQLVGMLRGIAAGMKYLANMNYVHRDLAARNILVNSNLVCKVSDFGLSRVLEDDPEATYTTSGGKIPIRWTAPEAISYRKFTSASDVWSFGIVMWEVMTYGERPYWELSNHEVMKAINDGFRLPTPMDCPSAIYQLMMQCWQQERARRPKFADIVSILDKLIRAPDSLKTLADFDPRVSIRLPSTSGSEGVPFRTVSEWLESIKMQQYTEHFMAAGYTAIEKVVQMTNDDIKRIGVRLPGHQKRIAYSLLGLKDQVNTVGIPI
T3 sequence (P29317 24-976): as above

For the molecule “control C10/RYR bsIgG (bispecific antibody)”, the surface EphA2 removed from pancreatic cancer cells (FACS) in [1] came to 85%. Besides, in experiment [2], the ALCAM Internalization (% over ctrl, Mean, n = 2); HEK293-EphA2#2 cells was 14.6 % over ctrl; the ALCAM Internalization (% over ctrl, Mean, n = 2); HEK293-EphA2#8 cells is 0.5 % over ctrl; the ALCAM Internalization (% over ctrl, Mean, n = 2); HEK293-EphA2#31 cells turned out to be 9.2 % over ctrl; the ALCAM Internalization (% over ctrl, Mean, n = 2); HEK293-EphA2#42 cells was -16.5 % over ctrl. Moreover, in [2], the ALCAM Internalization (% over ctrl, Mean, n = 2); HEK293-EphA2#C9 cells is -9.6 % over ctrl; the ALCAM Internalization (% over ctrl, Mean, n = 2); HEK293-EphA2-0.02 cells came to 28.6 % over ctrl; the ALCAM Internalization (% over ctrl, Mean, n = 2); HEK293-EphA2-0.1 cells was -22.4 % over ctrl; the ALCAM Internalization (% over ctrl, Mean, n = 2); HEK293-EphA2-0.5 cells was -36.3 % over ctrl. In [2], the ALCAM Internalization (% over ctrl, Mean, n = 2); HEK293-EphA2-2.5 cells stood at 7.1 % over ctrl; the ALCAM Internalization (% over ctrl, Mean, n = 2); HEK293-SiRNA2 cells is -6 % over ctrl; the ALCAM Internalization (% over ctrl, Mean, n = 2); HEK293-siRNA1 cells was -3.4 % over ctrl; the ALCAM Internalization (% over ctrl, Mean, n = 2); HEK293-siRNA3 cells is -4.4 % over ctrl. Further, in experiment [2], the ALCAM Internalization (% over ctrl, Mean, n = 2); HEK293 cells worked out at 10.8 % over ctrl.

B1: RYRgerm_102919_22 scFv (scFv)
scFv: EVQLVESGGGLVQPGGSLRLSCAASGFTFSSYSMNWVRQAPGKGLEWVSYISSSSSTIYYADSVKGRFTISRDNAKNSLYLQMNSLRAEDTAVYYCARYRLPNFWSGYPNYGMDVWGQGTTVTVSSGGGGSGGGGSGGGGSQSVLTQPPSVSGAPGQRVTISCTGSSSNIGAGYDVHWYQQLPGTAPKLLIYGNSNRPSGVPDRFSGSKSGTSASLAITGLQAEDEADYYCQSYDSSLSGHVVFGGGTKLTVL
For B1, the results for the Kd (in experiment [3]; in the experiment with recombinant human EphA2 [4]) were 1.34 nM and 28.1 nM, respectively.

B2: RYRgerm scFv (scFv)
chain: EVQLVESGGGLVQPGGSLRLSCAASGFTFSSYSMNWVRQAPGKGLEWVSYISSSSSTIYYADSVKGRFTISRDNAKNSLYLQMNSLRAEDTAVYYCARYRLPDFWSGYPNYGMDVWGQGTTVTVSSGGGGSGGGGSGGGGSQSVLTQPPSVSGAPGQRVTISCTGSSSNIGAGYDVHWYQQLPGTAPKLLIYGNSNRPSGVPDRFSGSKSGTSASLAITGLQAEDEADYYCQSYDSSLSGHVVFGGGTKLTVL
On to B2, for which the Kd was found to be 115 nM in experiment [3] and 355 nM in the experiment with recombinant human EphA2 [4].

B3: RYRgerm_102919_15 scFv (scFv)
scFv: EVQLVESGGGLVQPGGSLRLSCAASGFTFSSYSMNWVRQAPGKGLEWVSYISSSSSTIYYADSVKGRFTISRDNAKNSLYLQMNSLRAEDTAVYYCARYRLPNFWSGYPNYGTDVWGQGTTVTVSSGGGGSGGGGSGGGGSQSVLTQPPSVSGAPGQRVTISCTGSSSNIGAGYDVHWYQQLPGTAPKLLIYGNSNRPSGVPDRFSGSKSGTSASLAITGLQAEDEADYYCQSYDSSLSGHVVFGGGTKLTVL
Take B3: the “EC50 (read off the curve)” value in the experiment with recombinant human EphA2 [5] is about 5 nM. For the same molecule, the Kd in experiment [3] was 2.01 nM; in the experiment with recombinant human EphA2 [4], 5.58 nM.

B4: RYRgerm_102919_33 scFv (scFv)
scFv: EVQLVESGGGLVQPGGSLRLSCAASGFTFSSYSMNWVRQAPGKGLEWVSYISSSSSTIYYADSVKGRFTISRDNAKNSLYLQMNSLRAEDTAVYYCARYRFPDFWSGYPNYGMDVWGQGTTVTVSSGGGGSGGGGSGGGGSQSVLTQPPSVSGAPGQRVTISCTGSSSNIGAGYDVHWYQQLPGTAPKLLIYGNSNRPSGVPDRFSGSKSGTSASLAITGLQAEDEADYYCQSYDSSLSGHVVFGGGTKLTVL
Take B4: the Kd in experiment [3] is 2.87 nM; in the experiment with recombinant human EphA2 [4], 42.5 nM.

B5: RYRgerm_102919_14 scFv (scFv)
scFv: EVQLVESGGGLVQPGGSLRLSCAASGFTSSSYSMNWVRQAPGKGLEWVSYISSSSSTIYYADSVKGRFTISRDNAKNSLYLQMNSLRAEDTAVYYCARYRLPNFWSGYPNYGMDVWGQGTTVTVSSGGGGSGGGGSGGGGSQSVLTQPPSVSGAPGQRVTISCTGSSSNIGAGYDVHWYQQLPGTAPKLLIYGNSNRPSGVPDRFSGSKSGTSASLAITGLQAEDEADYYCQSYDSSLSGHVVFGGGTKLTVL
notes: also called RYRgerm_102019_14
As for B5, the Kd came to 2.12 nM in experiment [3] and 21.3 nM with recombinant human EphA2 [4].

B6: RYR IgG1 (antibody, V domains shown)
VH: QVQLQESGGGLVQPGGSLRLSCAASGFTFSSYSMNWVRQAPGKGLEWVSYISSSSSTIYYADSVKGRFTISRDNAKNSLYLQMNSLRAEDTAVYYCARYRLPDFWSGYPNYGMDVWGQGTTVTVSS
VL: QSVLTQPPSVSGAPGQRVTISCTGSSSNIGAGYDVHWYQQLPGTAPKLLIYGNSNRPSGVPDRFSGSKSGTSASLAITGLQAEDEADYYCQSYDSSLSGHVVFGGGT
notes: Recombinant human IgG1 built from the original EphA2 scFv RYR; also called original RYR; HCA-F1
As to B6, in the experiment with recombinant human EphA2 [6], the Kd was about 28 nM, the koff worked out at 0.0145 s⁻¹ and the kon came out at 518000 M⁻¹ s⁻¹. For the same molecule, the Kd in experiment [7] turned out to be 23.7 nM.

B7: anti-ALCAM 3F1 IgG1 (antibody, V domains shown)
VH: EVQLVESGGGLVKPGGSLRLSCAASGFTLSDYSMNWVRQAPGKGLEWVASISSRSSYIYYADSVKGRFTISRDNAKNSLYLGMNSLRAEDTAVYYCTGGQGYSGYDGFQHWGQGTLVTVSS
VL: QSALTQPPSASGTPGQRVTISCSGSSSNIGSNSVSWYQQLPGTAPKLLIYSNTHRPSGVPDRFSGSKSGTSASLAISGLLSEDEADYYCASWDDSLNGGVFGGGTQLTVL
notes: also called anti-ALCAM mAb 3F1
Consider B7, for which, in experiment [8], the “EC50 (read off the curve)” value is about 0.02 nM. Also, the Kd in experiment [9] came out at 0.0206 nM.
